Consider one molecule from article PMC11985968 (Nature Communications, 2025).

The target in this assay is T1, Mycobacterium tuberculosis UvrA (Mycobacterium tuberculosis, UniProt P9WQK7 1-972).
T1 sequence: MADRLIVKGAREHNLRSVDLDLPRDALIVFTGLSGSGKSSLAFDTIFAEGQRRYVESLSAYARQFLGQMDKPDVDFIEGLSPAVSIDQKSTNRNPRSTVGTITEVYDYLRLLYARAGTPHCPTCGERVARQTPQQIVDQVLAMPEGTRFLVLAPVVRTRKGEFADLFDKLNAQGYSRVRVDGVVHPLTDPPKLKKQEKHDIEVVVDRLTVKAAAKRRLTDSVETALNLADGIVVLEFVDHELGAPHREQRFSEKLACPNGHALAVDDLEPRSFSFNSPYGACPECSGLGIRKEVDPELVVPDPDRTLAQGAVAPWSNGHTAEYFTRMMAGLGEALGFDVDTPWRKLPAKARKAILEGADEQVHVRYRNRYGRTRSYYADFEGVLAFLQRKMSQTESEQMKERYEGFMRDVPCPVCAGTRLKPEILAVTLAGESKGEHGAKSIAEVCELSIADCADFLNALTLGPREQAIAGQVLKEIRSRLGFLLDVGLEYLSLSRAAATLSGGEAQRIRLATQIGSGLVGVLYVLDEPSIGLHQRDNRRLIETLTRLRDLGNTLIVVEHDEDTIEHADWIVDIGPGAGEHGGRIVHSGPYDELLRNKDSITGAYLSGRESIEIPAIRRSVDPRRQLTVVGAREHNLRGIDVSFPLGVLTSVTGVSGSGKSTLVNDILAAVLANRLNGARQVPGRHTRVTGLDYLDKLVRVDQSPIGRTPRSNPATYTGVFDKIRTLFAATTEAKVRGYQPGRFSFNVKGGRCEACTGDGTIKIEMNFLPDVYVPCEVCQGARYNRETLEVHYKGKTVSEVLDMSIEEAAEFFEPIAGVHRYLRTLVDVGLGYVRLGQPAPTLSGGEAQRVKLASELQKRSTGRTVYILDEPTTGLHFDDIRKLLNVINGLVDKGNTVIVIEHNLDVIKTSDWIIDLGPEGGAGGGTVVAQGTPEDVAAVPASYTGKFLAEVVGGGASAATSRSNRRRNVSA
The assay can be described thus: cryo-EM structure.

“And” between values parts separate entries of the source, which are not always exact repeats. Equal values may be shown once.

B1: Mycobacterium tuberculosis UvrB (enzyme)
chain: VRAGGHFEVVSPHAPAGDQPAAIDELERRINAGERDVVLLGATGTGKSATTAWLIERLQRPTLVMAPNKTLAAQLANELREMLPHNAVEYFVSYYDYYQPEAYIAQTDTYIEKDSSINDDVERLRHSATSALLSRRDVVVVASVSCIYGLGTPQSYLDRSVELKVGEEVPRDGLLRLLVDVQYTRNDMSFTRGSFRVRGDTVEIIPSYEELAVRIEFFGDEIEALYYLHPLTGEVIRQVDSLRIFPATHYVAGPERMAHAVSAIEEELAERLAELESQGKLLEAQRLRMRTNYDIEMMRQVGFCSGIENYSRHIDGRGPGTPPATLLDYFPEDFLLVIDESHVTVPQIGGMYEGDISRKRNLVEYGFRLPSACDNRPLTWEEFADRIGQTVYLSATPGPYELSQTGGEFVEQVIRPTGLVDPKVVVKPTKGQIDDLIGEIRTRADADQRVLVTTLTKKMAEDLTDYLLEMGIRVRYLHSEVDTLRRVELLRQLRLGDYDVLVGINLLREGLDLPEVSLVAILDADKEGFLRSSRSLIQTIGRAARNVSGEVHMYADKITDSMREAIDETERRRAKQIAYNEANGIDPQPLRKKIADILDQVYREADDTAVVEVGGSGRNASRGRRAQGEPGRAVSAGVFEGRDTSAMPRAELADLIKDLTAQMMAAARDLQFELAARFRDEIADLKRELRGMDAAGLK
Usually stoichiometry N stands for a count of units in the complex or per binding partner. Regarding B1, the “stoichiometry N” value was 1 UvrB per UvrA dimer and 2 UvrB per UvrA dimer.
